Results published in the nanobody polyreactivity screen of Harvey et al. (2022).

Assay: yeast display, Sf9 membrane polyspecificity reagent, FACS + sequencing; frameworks hold sequencing errors
Summary of the method: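 Galactose-induced (36–48 hours) yeast carrying a synthetic nanobody display library were exposed to 10% biotinylated, detergent-solubilized Sf9 membrane reagent at 4 °C for 1 hour. FACS followed streptavidin microbead enrichment, using low and high (top ~1%) gates for expression (anti-HA) and reagent binding (streptavidin). Colony PCR, MiSeq 2 × 250 sequencing and CDR-length filtering followed. Labels for polyreactivity reflect the gate of origin.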

| Sequence | polyreactivity (PSR sort gate) |
| --- | --- |
| QVQLVESGGGLVHAGGSLRLSCAASGRTLWYYTMGWYRQAPGKEMELVADITRGTSTNYADSVKGRFTISRDNAKNTVYLQMNILKPEDTAVYYCNRAHGRSRYSRDYDSWGQGTQVTVSS | low polyreactivity |
| QVQLVESGGGLVQAGGSLRLTCAASGRILVLNAMGWYRQAPGKERELVADITSGGSTYFADSVKGRFTISRDNAKNTVYLQMNSLKPEDTAVYYCAADWNTYPDYQQSYFVSYEYNYWGQGTQVTVSS | low polyreactivity |
| QVQLVESGGGLVQAGGSLRLSCAASGRILYLYTMGWYRQAPGKERELVAAISRGGSTYYADSVKGRFTISRDNAKNTVYLQMNSLKPEDTAVYYCSADARGYQFNYWGQGTLVTVSS | high polyreactivity |
| QVQLVESGGGLVQAGGSLRLSCAASGSTFPYYAMGWYRQAPGKERELVAAISRGDSTNYADSVKGRFTISRDNAKNTFYLQMNSLKTEDTAVYYCAARLQYRRTSVKYYYWGQGTQVTVSS | high polyreactivity |
| QVQLVESGGGLVQAGGSLRLSCAASGSTFSVNAMGWYRQAPGKERELVAAITYSGGSTYYADSVKGRFTISRDNAKNTVYLQMNSLKPEDTAVYYCAAEARYWIYEYDYWGQGTQVTVSS | high polyreactivity |
| QVQLVESGGGLVQAGGSLRLSCAASGFTFFANAMGWYRQAPGKERELVAAISISDATTYYADSVKGRFTISRDNAKNTVYLQMNSLKPEDTAVYDCAAEPEYIAGPLDYWGQGTQVTVSS | high polyreactivity |
| QVQLVESGGGLVQAGGSLRESCAASGSISAEYVMGWYRKAPGKERELVAAISVSAGTTYYADSVKGRFTISRDNAKTTVYLHMNSLKPEDTAVYYCAATDSYYWLYYYGYSPCNDYWGQGTQVTVSS | low polyreactivity |
| QVQLLESGGGLVQAGGSLRLSCASSGFTFGWYAMGWYRPAPGKERDLVAAISYSGGSTYYADSVKGRFTISRDNAKNTVYLQMNSLKPEDTAVYYCAAKARRPYSYHPYDYWGQGTQVTVSS | high polyreactivity |
| QVQLVESGGGLVQAGGSLRLSCAASGSTLVPNAMGWYRQAPGKERELVATISFSSGRTYYADSVKGRFTISRDNAKNTVYLQMNSLKPEDTAVYYCNARSFGPTESRYDYWGQGTQVTVSS | high polyreactivity |
| QVQLVESGGGLVQAGGSLRLSCAASGRIFWYNAMGWYRQAPGKERELVAAISSGGSTSYADSVKGRFTISRDNAKNTVYLQMNSLKPEDTAVYYCAKDDERKQGQYPPYDSWGQGTQVTVSS | low polyreactivity |
| QVHVVESGGGLVQAGGSLRLSCAASGRTFYGYAMGWYRQAPGKERELVAGITSGGNTNYADSVKGRFTISRDNAKNTVYLQMNSLKPEDTAVYYCAADRYSFRGDYYWGQGTQVTVSS | low polyreactivity |
| QVQLVESGGGLVQAGGSLRLSCAASGFIFPAYVMGWYRQAPGKERELVAAISRRGGSTYYADSVKGRFTISRDNAKNTVYLQMNRLKPEDTSVYYCAAVFKAGSAYDYWGQGTQVTVSS | high polyreactivity |
| QVQLVESGGGLVQAGGSRRLSCAASGLICLLYDMGWYREAPGKERELVAAISTGGSTDYADSVKGRFTISRDNAKNTVYLPLNSLKPEDTAVYYCAADYYLYYLDGEDYWVQGTQVTVSS | high polyreactivity |
| QVQLVESGGGLVQAGGSLRLSCAASGSTFSRNTMGWYRQAPGKERELVAAITRSGDSTYYADSVKGRFTISRDNAKKTVYLQMNSLKPEDTAVYYCAARRAYLNYYYWGQGTQVTVSS | high polyreactivity |
| QVQLVESGGGLVQAGGSLRLSCAASISSINAMGWYRQAPGKERELVAAIRWSGSSTYYADSVKGRFTISRDNAKNTVYLQMNSLKPEDTAVYYCAADTTTGDRGFDYWGQGTQVTVSS | high polyreactivity |
| QVQLEESGGGLVQAGGSLRLSCAASGRIFSYNVMGWYRQAPGKEREFVAAITSNDGSTYYADSVKGRFTISRDNAKNTVYLQMNSLKPEDTAVYYCNADFGPVSLKEPFRDDYWGQGTQVNVSS | low polyreactivity |
| QVQLVESGGGLVQAGGSLRLSCAASGSTFSSYAMGWYRQAPGKERELVAAITYSGGSTYYADSVKGRFTISRDNAKNTVYLQMNSLKPEDTAVYYCATRSLFWSFTYYYWGQGTQVTVSS | low polyreactivity |
| QVQLVESGGGFVQAGGSLRLSCAASGRIFRYYTMGWYRKAPGKERELVAAISWTGASTYYADSVKGRFTISLDNAKNTLYLQMNSLKPEDTAVYYCAADSYIAHHGFAMDYWGQGTQVTVSS | low polyreactivity |
| QVQLVESAGGLVQAGGSLRLSCAASGSTFTYKGMGWYRQAPGKERELVASISSRGGSTYYADSVKGRFTISRDNAKNTVYLQMNSLKPDDTAVYYCAAVARARARTPWLGRGYWGQVTQVTVSS | high polyreactivity |
| QVQLVESGGGIVQAGGSLRLSCAASARIFGYNAMGWYRQAPGKERELVADITGSGGSTYYADSVKGRFTISRDNAKNTVYLQMNSLKPEDTAVYYCATPYAVYHVEYGYWGQGTQVTVSS | low polyreactivity |
| QVQLVESGGGLVQAGGSLRLSCAASGYIFYYNAMGWYRQAPGKERELVAVISRTGASTYYADSVKGRFTISRDNAKNTVYLQMNSLKPEDTAVYYCAVRYETVDGNWRYFYWGQGTQVTVSS | high polyreactivity |
| QVQLVDSGGGLVQAGGSLRLSCPASGSIISVYARGWYRQAPGKERELVADITGTGDTYYADSVKGRFTISRDKAKNTVYLHRNSLKPDDTAGYYCNTVYELYYDPSVTEDYWGQGTQVTVSS | low polyreactivity |

| Sequence | polyreactivity (PSR sort gate) |
| --- | --- |
| QVQLVESGGGLVQAAGSLRLSFAASGGIFSYYVMGWYRQAPGKEREFVASITQRGRTYYADSVKGRFTISRDNAKNTVYLQMNSLKPEDTAVYYCAAGIYAFRRHREEYDYWGQGTQVTVSS | high polyreactivity |
| QDQLVESGGGLVQAGGSLRLSCAASGITFAGNAMGWYRQAPGKERELVAAISGSGGSTSYADSVKGRFTISRDNAKNTVYLQMNSLKPEDTAVYYCAAASRLYNWHALFGSWGQGTQVTVSS | low polyreactivity |
| QVQLVESGGGLVQAGGSLRLSCAASGFTFYRYAMGWYRQAPGKERELVAAITSRSGITYYADSVKGRFTISRDNAKNTVYLQMNSLKPEDTAVYYCGAYVSRSTEFDYGYWGQGTQVTVSS | high polyreactivity |
| QVQLVESGGGLVQAGGSLRLSCAASGRTFYYYAMGWYRHAPGKERELVAAISIGGITYADSVKGRFTISRDNAKNTVYLQMNSLKPEDTAVYYCAATARQSRGRFYWGQGTQVTVSS | low polyreactivity |
| QVQLVESGGGLVQAGGSLRLSCAASGSTFPLYAMGWYRQAPGKERELVATISWGDGSTYYADSVKGRFTISRDTAKNTVYLQMNSLNPEETAVYYCAEDEYPDATTDATDKYYYWGQGTQVTVST | low polyreactivity |
| QVQLVESGGGLVQAGGSLRLSCAASGRIFGKYAMGWYRQAPGKERELVAAIRITGGSTYYADSVKGRFTISRDNAKNTVYLQMNSLKPEDTAVYYCAAVYKYADVIYDYWGQGTQVTVSS | high polyreactivity |
| QVQLVESGGGLVQAGGSLRLSCAASGRIFRGYAMGWYRQAPGKERELVAAISGSGGSTYYADSVKGRFTISRDNAKNTVYLQMMSLKPEDTAVYYCAADQQSTGDWAGDYWGQGTQVTVSS | low polyreactivity |
| QVQLVESGGGLVQAGGSLRLSCAASGSIFVYNAMGWYRKATGKERELVAGITFIGGSTYYADSVKGRFTISRDNAKNTVYLQMNSLKPEDTAVYYCNADVAPGIFYGYDSWGQGTQVTVSS | low polyreactivity |
| QVQLVESGGGLVQAGGSLRLSCAASGSIFYNAMGWYRQAPGKERELVAAISYRGGRTYYADSVKGRFTISRDNAKNTVYLQMNSLKPEDTAVYYCAADSTVGRYPYDYWGPGTQVTVSS | high polyreactivity |
| QVQLVESGGGLVQAGGSLRLSCAASGNTFVYYAMGWYRQAPGKERELVAGISRRSGSTYYADSVKGRFTISRDNAKNTVYLQMNSLKPEDTAVYYCAIGRTYLDAEDYWGQGSQVTVSS | low polyreactivity |
| QVQLVESGGGLVQAGGSLRLSCAASGYTFHHNTMGWYRQAPGKERELVATISDGGSTNYADSVKGRFTISRDNAKNTVYLQMNSLKPEDTAVYYCAALYQQFQSALVPYFDVIEEDYWGQGTQVTVSS | low polyreactivity |
| QVQLVESGGGLVQAGGSLRLICAASGSIFRLNTMGWYRQAPGKERELVAAIFTSGGSTYADSVKGRFTISRDNAKNTVYLQMNSLKPEDTAVYYCAGMDYWGQGTQVTVSS | low polyreactivity |
| QVQLVESGGGLVQAGGSLRLSCADSGFTFDYNAMGSYRQAPGKERELVAAISTGGSTKYADSVKGRFTISRDNAKNTVYLQMNSLKPEDTAVYYCNKQTTDRGFYDWKWSGFDYWGQGTQVTVSS | low polyreactivity |
| QVQLVESGGGLVQAGGSLRLSCAASGRTFYVYTMGLYRQAPGKELELVAAISSSGGSTYYADSVKGRFTISRDNAKNTVYLQMNSLKPEDTAVYYCNSQWSLTRYGYWGQGTQVTVSS | high polyreactivity |
| QVQLVESGGGLVQAGGSLRLICAASGITLDGNAMGWYRQAPGKERELVAAITSGGGTNYADSVKGRFTISRDNAKNTVYLQMNSLKPEDTAVYYCAAEGYVGYYDYDYWGQGTQVTVSS | low polyreactivity |
| QVQLVDSGGGLVQAGGSLRLSCAASGSTFRYNAMGWYRQAPGKERELVAAIDKRGDSTYADSVKGRFTISRDNAKNTVYLQLNSLKPEDTAVYYCAADSDSKYNYGFLWDTYEYWGQGTQVTVSS | low polyreactivity |
| QVQLVESGGGLVQAGGSLRLSCAASGFTFYPYSMGWYRQAPGKERELVAAIRGSGGSTHYADSVKGRFTISRDNAKNTVYLQMNSLKPEDTAVYYCAARIRGYRQYGTYYYWGQGTQVTVSS | high polyreactivity |
| QVQLVESGGGLVQAGGSLRLSCAASGSTFRYYALGWYRQAPGKEREVVASISIGGGSTYYADSVKGRFTISRDYAKNTVYVQMNSLKPEDTAVYYCAAERTIRAARPFFRTFDYWGQGTQVTVSS | low polyreactivity |
| QVQLVESGGGLVQAGGSLRLSCAASGRIFSHNVMGWYRQAPGKERELVAAISWSSGSTYYADSVKGRFTISRDNAKNTVYLQMNSLKPEDTAVYYCNAATRPTGDYWGQGTQVTVSS | low polyreactivity |
| QVQLVESGGGLVQAGGSLRLSCAASGSTFGVNAMGWYRQAPGKERELVAAISSSGSSTYADSVKGRFTISRDNAKNTVYLQMNSLKPEDTAVYYCAAQSPAYYTKSYWGQGTQVTVSS | low polyreactivity |
| QVQLVESGGGLVQAGGSLRLSCAASGFIFYRYAMGWYRQAPGNERELVAAISSGGSTYYADSVKGRFTISRDNAKNTVYLQMNSLKPEDTAVYYCNAYHNYWRYRTDEMNYWGQGTQVTVSS | high polyreactivity |
